This is an account of results in US20200407419A1 (LONZA SALES, published 2020).

Assay [1] has as its target IL-7 receptor (IL-7R) on PBMCs (UniProt P16871). The assay is described as follows: cell-based or functional assay.
The next assay concerns the target CD40 on human B-cells (human, UniProt P25942 21-277). As to the kind of experiment: cell-based or functional assay.

Chain of CD40 on human B-cells (P25942 21-277): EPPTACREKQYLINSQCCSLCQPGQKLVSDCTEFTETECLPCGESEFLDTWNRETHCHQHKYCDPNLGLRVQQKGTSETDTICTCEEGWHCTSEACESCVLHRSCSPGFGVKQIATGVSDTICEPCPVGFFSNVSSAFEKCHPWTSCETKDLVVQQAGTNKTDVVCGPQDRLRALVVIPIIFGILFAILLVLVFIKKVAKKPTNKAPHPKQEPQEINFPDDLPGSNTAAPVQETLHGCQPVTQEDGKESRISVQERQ
Chain of IL-7 receptor (IL-7R) on PBMCs (P16871 21-459 limits assumed): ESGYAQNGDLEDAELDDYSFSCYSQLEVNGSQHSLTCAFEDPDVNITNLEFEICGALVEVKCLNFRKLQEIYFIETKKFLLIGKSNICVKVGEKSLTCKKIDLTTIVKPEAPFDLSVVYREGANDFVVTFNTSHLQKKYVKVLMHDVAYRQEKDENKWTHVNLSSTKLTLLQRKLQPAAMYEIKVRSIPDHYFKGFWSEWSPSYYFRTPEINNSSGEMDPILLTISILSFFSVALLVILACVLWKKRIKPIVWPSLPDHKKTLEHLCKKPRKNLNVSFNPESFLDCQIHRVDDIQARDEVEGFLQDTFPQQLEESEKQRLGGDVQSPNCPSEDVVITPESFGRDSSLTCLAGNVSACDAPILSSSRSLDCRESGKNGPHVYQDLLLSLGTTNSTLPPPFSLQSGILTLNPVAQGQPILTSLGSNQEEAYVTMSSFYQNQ

For “IL-7 exosomes from the pDisplay plasmid encoding a fusion of IL-7 and PDGF Receptor (ligand)”, the IC50 (p/ml) of reduction of IL-7R levels on PBMCs in assay [1] was determined as 1.1e+11 p/ml. In the assay with CD40 on human B-cells, “exosomes with trimeric CD40L-PTGFRN construct pCB-527 (PTGFRN-trimeric CD40L-GFP) (ligand)” showed an EC50 of B-cell activation (CD69 positivity on B-cells), ng/mL of CD40L of 1.89 ng/mL and an EC50 of B-cell activation (CD69 positivity on B-cells), particles/mL of 4.53e+08 particles/mL. Molecule “recombinant human CD40L (Biolegend, Catalog No. 591702) (from UniProt P29965 113-261) (ligand)” displayed an EC50 of B-cell activation (CD69 positivity on B-cells), ng/mL of CD40L with CD40 on human B-cells of 28.5 ng/mL.

B1: exosomes with trimeric CD40L-PTGFRN construct pCB-766 (tag-less, lacking the C-terminal GFP) (ligand)
chain: MQKGDQNPQIAAHVISEASSKTTSVLQWAEKGYYTMSNNLVTLENGKQLTVKRQGLYYIYAQVTFCSNREASSQAPFIASLCLKSPGRFERILLRAANTHSSAKPCGQQSIHLGGVFELQPGASVFVNVTDPSQVSHGTGFTSFGLLKLGSGGSGGSGGSGMQKGDQNPQIAAHVISEASSKTTSVLQWAEKGYYTMSNNLVTLENGKQLTVKRQGLYYIYAQVTFCSNREASSQAPFIASLCLKSPGRFERILLRAANTHSSAKPCGQQSIHLGGVFELQPGASVFVNVTDPSQVSHGTGFTSFGLLKLGSGGSGGSGGSGMQKGDQNPQIAAHVISEASSKTTSVLQWAEKGYYTMSNNLVTLENGKQLTVKRQGLYYIYAQVTFCSNREASSQAPFIASLCLKSPGRFERILLRAANTHSSAKPCGQQSIHLGGVFELQPGASVFVNVTDPSQVSHGTGFTSFGLLKLSAGGGGSGGGGSRVVRVPTATLVRVVGTELVIPCNVSDYDGPSEQNFDWSFSSLGSSFVELASTWEVGFPAQLYQERLQRGEILLRRTANDAVELHIKNVQPSDQGHYKCSTPSTDATVQGNYEDTVQVKVLADSLHVGPSARPPPSLSLREGEPFELRCTAASASPLHTHLALLWEVHRGPARRSVLALTHEGRFHPGLGYEQRYHSGDVRLDTVGSDAYRLSVSRALSADQGSYRCIVSEWIAEQGNWQEIQEKAVEVATVVIQPSVLRAAVPKNVSVAEGKELDLTCNITTDRADDVRPEVTWSFSRMPDSTLPGSRVLARLDRDSLVHSSPHVALSHVDARSYHLLVRDVSKENSGYYYCHVSLWAPGHNRSWHKVAEAVSSPAGVGVTWLEPDYQVYLNASKVPGFADDPTELACRVVDTKSGEANVRFTVSWYYRMNRRSDNVVTSELLAVMDGDWTLKYGERSKQRAQDGDFIFSKEHTDTFNFRIQRTTEEDRGNYYCVVSAWTKQRNNSWVKSKDVFSKPVNIFWALEDSVLVVKARQPKPFFAAGNTFEMTCKVSSKNIKSPRYSVLIMAEKPVGDLSSPNETKYIISLDQDSVVKLENWTDASRVDGVVLEKVQEDEFRYRMYQTQVSDAGLYRCMVTAWSPVRGSLWREAATSLSNPIEIDFQTSGPIFNASVHSDTPSVIRGDLIKLFCIITVEGAALDPDDMAFDVSWFAVHSFGLDKAPVLLSSLDRKGIVTTSRRDWKSDLSLERVSVLEFLLQVHGSEDQDFGNYYCSVTPWVKSPTGSWQKEAEIHSKPVFITVKMDVLNAFKYPLLIGVGLSTVIGLLSCLIGYCSSHWCCKKEVQETRRERRRLMSMEMD
B1: in the assay with CD40 on human B-cells, the “EC50 of B-cell activation (CD69 positivity on B-cells), ng/mL of CD40L” value stood at 1.68 ng/mL and the “EC50 of B-cell activation (CD69 positivity on B-cells), particles/mL” value was determined as 6.63e+08 particles/mL.
